Measurements from the supplement of paper PMC10219994.
± gives the standard deviation of the averaged measurements.

B1: library; a variant is named by its letters at N, in order (parent)
chain: GAGACCGCAACTGAAAAGTTGTGGNNNNNATAGTGAGTCGCTGCCTGCAAAGACACAACT

Variants of: B1
Test: ligation selection enrichment (abundance after / before one-round selection) (fold); higher = more template-directed ligation activity
Details: with T7Psub CACGGAUGCUAAUACGACUCACUAUA; MgCl2 25 mM; 42 °C; 4 h; pH 8.5
Protocol: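 Lib-N5 ligase ribozyme library: five randomized core nucleotides (including the GGA motif of N8-1) within the fixed N8-1 ribozyme flanks, transcribed by T7 RNA polymerase with a 5'-triphosphate. The library (0.75 uM) was reacted with substrate T7Psub (6 uM) in 50 mM EPPS pH 8.5 with 25 mM MgCl2 at 42 C for 4 h. Ligated products were PAGE-purified, reverse transcribed and MiSeq sequenced; enrichment = abundance after selection / abundance before selection, with two independent replicates. The full transcript is built from the printed template flanks.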

Variant	ligation selection enrichment
GAGACCGCAACTGAAAAGTTGTGGAACATATAGTGAGTCGCTGCCTGCAAAGACACAACT	0.729 ± 0.14
GAGACCGCAACTGAAAAGTTGTGGAACAGATAGTGAGTCGCTGCCTGCAAAGACACAACT	0.2191 ± 0.00078
GAGACCGCAACTGAAAAGTTGTGGAACAAATAGTGAGTCGCTGCCTGCAAAGACACAACT	0.209 ± 0.018
GAGACCGCAACTGAAAAGTTGTGGAACACATAGTGAGTCGCTGCCTGCAAAGACACAACT	0.159 ± 0.016
GAGACCGCAACTGAAAAGTTGTGGGAAGTATAGTGAGTCGCTGCCTGCAAAGACACAACT	0.121 ± 0.06
GAGACCGCAACTGAAAAGTTGTGGTACCGATAGTGAGTCGCTGCCTGCAAAGACACAACT	0.574 ± 0.048
GAGACCGCAACTGAAAAGTTGTGGTACCAATAGTGAGTCGCTGCCTGCAAAGACACAACT	0.184 ± 0.011
GAGACCGCAACTGAAAAGTTGTGGTACCTATAGTGAGTCGCTGCCTGCAAAGACACAACT	0.599 ± 0.22
GAGACCGCAACTGAAAAGTTGTGGTACCCATAGTGAGTCGCTGCCTGCAAAGACACAACT	0.202 ± 0.003
GAGACCGCAACTGAAAAGTTGTGGAAATCATAGTGAGTCGCTGCCTGCAAAGACACAACT	0.171 ± 0.01
GAGACCGCAACTGAAAAGTTGTGGAAATGATAGTGAGTCGCTGCCTGCAAAGACACAACT	0.495 ± 0.067
GAGACCGCAACTGAAAAGTTGTGGAAATAATAGTGAGTCGCTGCCTGCAAAGACACAACT	0.18 ± 0.034
GAGACCGCAACTGAAAAGTTGTGGAAATTATAGTGAGTCGCTGCCTGCAAAGACACAACT	0.446 ± 0.12
GAGACCGCAACTGAAAAGTTGTGGTAGACATAGTGAGTCGCTGCCTGCAAAGACACAACT	1.03 ± 0.29
GAGACCGCAACTGAAAAGTTGTGGTAGAAATAGTGAGTCGCTGCCTGCAAAGACACAACT	0.484 ± 0.075
GAGACCGCAACTGAAAAGTTGTGGTACATATAGTGAGTCGCTGCCTGCAAAGACACAACT	0.578 ± 0.12
GAGACCGCAACTGAAAAGTTGTGGTACAGATAGTGAGTCGCTGCCTGCAAAGACACAACT	0.393 ± 0.092
GAGACCGCAACTGAAAAGTTGTGGTACAAATAGTGAGTCGCTGCCTGCAAAGACACAACT	0.211 ± 0.08
GAGACCGCAACTGAAAAGTTGTGGTACACATAGTGAGTCGCTGCCTGCAAAGACACAACT	0.139 ± 0.042
GAGACCGCAACTGAAAAGTTGTGGAACTGATAGTGAGTCGCTGCCTGCAAAGACACAACT	0.506 ± 0.068
GAGACCGCAACTGAAAAGTTGTGGAACTTATAGTGAGTCGCTGCCTGCAAAGACACAACT	0.165 ± 0.066
GAGACCGCAACTGAAAAGTTGTGGAACTCATAGTGAGTCGCTGCCTGCAAAGACACAACT	0.0963 ± 0.052
GAGACCGCAACTGAAAAGTTGTGGAACTAATAGTGAGTCGCTGCCTGCAAAGACACAACT	0.165 ± 0.013

Variant	ligation selection enrichment
GAGACCGCAACTGAAAAGTTGTGGCACCTATAGTGAGTCGCTGCCTGCAAAGACACAACT	0.334 ± 0.14
GAGACCGCAACTGAAAAGTTGTGGCACCCATAGTGAGTCGCTGCCTGCAAAGACACAACT	0.15 ± 0.0098
GAGACCGCAACTGAAAAGTTGTGGCACCGATAGTGAGTCGCTGCCTGCAAAGACACAACT	0.217 ± 0.047
GAGACCGCAACTGAAAAGTTGTGGCACCAATAGTGAGTCGCTGCCTGCAAAGACACAACT	0.112 ± 0.018
GAGACCGCAACTGAAAAGTTGTGGGAGAAATAGTGAGTCGCTGCCTGCAAAGACACAACT	0.508 ± 0.036
GAGACCGCAACTGAAAAGTTGTGGGAGACATAGTGAGTCGCTGCCTGCAAAGACACAACT	0.765 ± 0.031
GAGACCGCAACTGAAAAGTTGTGGTACTAATAGTGAGTCGCTGCCTGCAAAGACACAACT	0.168 ± 0.08
GAGACCGCAACTGAAAAGTTGTGGTACTCATAGTGAGTCGCTGCCTGCAAAGACACAACT	0.103 ± 0.036
GAGACCGCAACTGAAAAGTTGTGGTACTGATAGTGAGTCGCTGCCTGCAAAGACACAACT	0.641 ± 0.095
GAGACCGCAACTGAAAAGTTGTGGTACTTATAGTGAGTCGCTGCCTGCAAAGACACAACT	0.0933 ± 0.018
GAGACCGCAACTGAAAAGTTGTGGCACACATAGTGAGTCGCTGCCTGCAAAGACACAACT	0.168 ± 0.031
GAGACCGCAACTGAAAAGTTGTGGCACAAATAGTGAGTCGCTGCCTGCAAAGACACAACT	0.132 ± 0.055
GAGACCGCAACTGAAAAGTTGTGGCACATATAGTGAGTCGCTGCCTGCAAAGACACAACT	1.16 ± 0.21
GAGACCGCAACTGAAAAGTTGTGGCACAGATAGTGAGTCGCTGCCTGCAAAGACACAACT	0.134 ± 0.035
GAGACCGCAACTGAAAAGTTGTGGTAATTATAGTGAGTCGCTGCCTGCAAAGACACAACT	0.211 ± 0.098
GAGACCGCAACTGAAAAGTTGTGGTAATCATAGTGAGTCGCTGCCTGCAAAGACACAACT	0.111 ± 0.048
GAGACCGCAACTGAAAAGTTGTGGTAATAATAGTGAGTCGCTGCCTGCAAAGACACAACT	0.189 ± 0.0088
GAGACCGCAACTGAAAAGTTGTGGTAATGATAGTGAGTCGCTGCCTGCAAAGACACAACT	1.16 ± 0.27
GAGACCGCAACTGAAAAGTTGTGGTACGGATAGTGAGTCGCTGCCTGCAAAGACACAACT	0.379 ± 0.026
GAGACCGCAACTGAAAAGTTGTGGTACGCATAGTGAGTCGCTGCCTGCAAAGACACAACT	0.1908 ± 0.0012
GAGACCGCAACTGAAAAGTTGTGGTACGAATAGTGAGTCGCTGCCTGCAAAGACACAACT	1.32 ± 0.13
GAGACCGCAACTGAAAAGTTGTGGTACGTATAGTGAGTCGCTGCCTGCAAAGACACAACT	0.169 ± 0.044
GAGACCGCAACTGAAAAGTTGTGGCAGAAATAGTGAGTCGCTGCCTGCAAAGACACAACT	0.343 ± 0.0039

Variant	ligation selection enrichment
GAGACCGCAACTGAAAAGTTGTGGAAAGTATAGTGAGTCGCTGCCTGCAAAGACACAACT	0.147 ± 0.088
GAGACCGCAACTGAAAAGTTGTGGGACTAATAGTGAGTCGCTGCCTGCAAAGACACAACT	0.161 ± 0.026
GAGACCGCAACTGAAAAGTTGTGGGACTGATAGTGAGTCGCTGCCTGCAAAGACACAACT	0.762 ± 0.055
GAGACCGCAACTGAAAAGTTGTGGGACTCATAGTGAGTCGCTGCCTGCAAAGACACAACT	0.111 ± 0.037
GAGACCGCAACTGAAAAGTTGTGGGACTTATAGTGAGTCGCTGCCTGCAAAGACACAACT	0.157 ± 0.075
GAGACCGCAACTGAAAAGTTGTGGGACACATAGTGAGTCGCTGCCTGCAAAGACACAACT	0.176 ± 0.0093
GAGACCGCAACTGAAAAGTTGTGGGACATATAGTGAGTCGCTGCCTGCAAAGACACAACT	0.499 ± 0.025
GAGACCGCAACTGAAAAGTTGTGGGACAGATAGTGAGTCGCTGCCTGCAAAGACACAACT	0.419 ± 0.07
GAGACCGCAACTGAAAAGTTGTGGGACAAATAGTGAGTCGCTGCCTGCAAAGACACAACT	0.256 ± 0.04
GAGACCGCAACTGAAAAGTTGTGGCAAGTATAGTGAGTCGCTGCCTGCAAAGACACAACT	0.157 ± 0.079
GAGACCGCAACTGAAAAGTTGTGGGACCTATAGTGAGTCGCTGCCTGCAAAGACACAACT	0.584 ± 0.26
GAGACCGCAACTGAAAAGTTGTGGGACCCATAGTGAGTCGCTGCCTGCAAAGACACAACT	0.238 ± 0.057
GAGACCGCAACTGAAAAGTTGTGGGACCGATAGTGAGTCGCTGCCTGCAAAGACACAACT	0.8601 ± 0.0032
GAGACCGCAACTGAAAAGTTGTGGGACCAATAGTGAGTCGCTGCCTGCAAAGACACAACT	0.239 ± 0.067
GAGACCGCAACTGAAAAGTTGTGGAACGGATAGTGAGTCGCTGCCTGCAAAGACACAACT	0.32 ± 0.045
GAGACCGCAACTGAAAAGTTGTGGAACGAATAGTGAGTCGCTGCCTGCAAAGACACAACT	0.673 ± 0.067
GAGACCGCAACTGAAAAGTTGTGGAACGCATAGTGAGTCGCTGCCTGCAAAGACACAACT	0.197 ± 0.017
GAGACCGCAACTGAAAAGTTGTGGAACGTATAGTGAGTCGCTGCCTGCAAAGACACAACT	0.167 ± 0.013
GAGACCGCAACTGAAAAGTTGTGGGACGAATAGTGAGTCGCTGCCTGCAAAGACACAACT	1.29 ± 0.2
GAGACCGCAACTGAAAAGTTGTGGGACGCATAGTGAGTCGCTGCCTGCAAAGACACAACT	0.264 ± 0.024
GAGACCGCAACTGAAAAGTTGTGGGACGGATAGTGAGTCGCTGCCTGCAAAGACACAACT	0.409 ± 0.066
GAGACCGCAACTGAAAAGTTGTGGGACGTATAGTGAGTCGCTGCCTGCAAAGACACAACT	0.154 ± 0.063
GAGACCGCAACTGAAAAGTTGTGGGAATCATAGTGAGTCGCTGCCTGCAAAGACACAACT	0.205 ± 0.079

Variant	ligation selection enrichment
GAGACCGCAACTGAAAAGTTGTGGGAATAATAGTGAGTCGCTGCCTGCAAAGACACAACT	0.175 ± 0.0089
GAGACCGCAACTGAAAAGTTGTGGGAATTATAGTGAGTCGCTGCCTGCAAAGACACAACT	0.249 ± 0.099
GAGACCGCAACTGAAAAGTTGTGGGAATGATAGTGAGTCGCTGCCTGCAAAGACACAACT	0.478 ± 0.011
GAGACCGCAACTGAAAAGTTGTGGCAATGATAGTGAGTCGCTGCCTGCAAAGACACAACT	0.249 ± 0.03
GAGACCGCAACTGAAAAGTTGTGGCAATAATAGTGAGTCGCTGCCTGCAAAGACACAACT	0.143 ± 0.036
GAGACCGCAACTGAAAAGTTGTGGCAATCATAGTGAGTCGCTGCCTGCAAAGACACAACT	0.136 ± 0.047
GAGACCGCAACTGAAAAGTTGTGGCAATTATAGTGAGTCGCTGCCTGCAAAGACACAACT	0.343 ± 0.11
GAGACCGCAACTGAAAAGTTGTGGCACTGATAGTGAGTCGCTGCCTGCAAAGACACAACT	0.286 ± 0.0061
GAGACCGCAACTGAAAAGTTGTGGCACTCATAGTGAGTCGCTGCCTGCAAAGACACAACT	0.0626 ± 0.02
GAGACCGCAACTGAAAAGTTGTGGCACTAATAGTGAGTCGCTGCCTGCAAAGACACAACT	0.157 ± 0.041
GAGACCGCAACTGAAAAGTTGTGGCACTTATAGTGAGTCGCTGCCTGCAAAGACACAACT	0.105 ± 0.047
GAGACCGCAACTGAAAAGTTGTGGCACGTATAGTGAGTCGCTGCCTGCAAAGACACAACT	0.156 ± 0.046
GAGACCGCAACTGAAAAGTTGTGGCACGCATAGTGAGTCGCTGCCTGCAAAGACACAACT	0.163 ± 0.014
GAGACCGCAACTGAAAAGTTGTGGCACGGATAGTGAGTCGCTGCCTGCAAAGACACAACT	0.242 ± 0.057
GAGACCGCAACTGAAAAGTTGTGGCACGAATAGTGAGTCGCTGCCTGCAAAGACACAACT	0.471 ± 0.005
GAGACCGCAACTGAAAAGTTGTGGAACCTATAGTGAGTCGCTGCCTGCAAAGACACAACT	0.845 ± 0.39
GAGACCGCAACTGAAAAGTTGTGGAACCAATAGTGAGTCGCTGCCTGCAAAGACACAACT	0.1955 ± 0.00066
GAGACCGCAACTGAAAAGTTGTGGAACCCATAGTGAGTCGCTGCCTGCAAAGACACAACT	0.21 ± 0.032
GAGACCGCAACTGAAAAGTTGTGGAACCGATAGTGAGTCGCTGCCTGCAAAGACACAACT	0.526 ± 0.039
GAGACCGCAACTGAAAAGTTGTGGAAGAAATAGTGAGTCGCTGCCTGCAAAGACACAACT	0.428 ± 0.044
